Measured values from US20210238276A1 (INTEGRAL MOLECULAR, published 2021).
Residue numbers refer to the chain shown, from its start.

Experiments:
Assay in all cases: flow cytometry, alanine-scan library in HEK-293T, with cytochalasin B
[1] = molecular target: T1, hsGLUT4 E162A (human, UniProt P14672 1-509)
T1 sequence: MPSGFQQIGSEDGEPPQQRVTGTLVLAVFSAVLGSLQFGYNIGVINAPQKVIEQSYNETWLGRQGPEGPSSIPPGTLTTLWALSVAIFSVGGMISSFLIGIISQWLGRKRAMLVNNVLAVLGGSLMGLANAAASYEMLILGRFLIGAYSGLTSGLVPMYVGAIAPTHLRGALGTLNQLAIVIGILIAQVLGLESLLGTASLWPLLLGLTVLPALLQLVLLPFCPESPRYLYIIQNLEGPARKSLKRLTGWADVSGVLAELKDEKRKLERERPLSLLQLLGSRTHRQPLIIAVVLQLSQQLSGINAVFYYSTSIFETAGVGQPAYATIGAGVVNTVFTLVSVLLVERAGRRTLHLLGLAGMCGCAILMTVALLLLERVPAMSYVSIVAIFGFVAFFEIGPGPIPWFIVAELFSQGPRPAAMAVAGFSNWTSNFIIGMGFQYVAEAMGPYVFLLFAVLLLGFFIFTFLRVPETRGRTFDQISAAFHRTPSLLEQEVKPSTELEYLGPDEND
Outline: (§1)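 HEK-293T cells expressing individual GLUT4 alanine mutants were stained 48 h post-transfection with anti-GLUT4 scFv MAbs (2 μg/ml), then biotinylated secondary and streptavidin-PerCP, and read by high-throughput flow cytometry. Where used, cytochalasin B (10 uM final) was given for 30 min before and during primary antibody staining.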

[2] = molecular target: T2, hsGLUT4 E315A (human, UniProt P14672 1-509)
T2 sequence: T1 sequence with A162E, E315A
Outline: as §1

[3] = molecular target: T3, hsGLUT4 F405A (human, UniProt P14672 1-509)
T3 sequence: T1 sequence with A162E, F405A
Outline: as §1

[4] = molecular target: T4, hsGLUT4 R416A (human, UniProt P14672 1-509)
T4 sequence: T1 sequence with A162E, R416A
Outline: as §1

- % of binding to wild type GLUT4 [1]: 7%
- % of binding to wild type GLUT4 [2]: 76%
- % of binding to wild type GLUT4 [3]: 105%
- % of binding to wild type GLUT4 [4]: 70%
B1: AB102 (Fc fusion)
scFv: ALTQPSSVSANLGGTVKITCSGGGSYGYGWYQQKSPGSAPVTVIYSNDQRPSDIPSRFSGSKSGSTATLTITGVRAEDEAIYYCGSTDSDYVGIFGAGTTLTVLGQSSRSSGGGGSSGGGGSAVTLDESGGGLQTPGGTLSLVCKASGFDFSSYATIWVRQAPGKGLEWVAGISGTGTGSSTGYAPAVKGRATISRDNGQSTVRLQLNNLRAEDTGSYFCAKSTGYGDSWIYPDSIDAWGHGTEVIVSS
notes: also called MAb AB102; not shown: Fc fragment of human IgG1, cloned in frame with the scFv
